According to paper PMC7801428 (Nature Communications, 2021):

Molecular target: SARS-CoV-2 RBD (residues V320 to G550, strain Wuhan-Hu-1), C-terminal His tag (SARS-CoV-2, UniProt P0DTC2)
Experiment: BLI
Settings: both partners purified

B1: human-mouse chimeric antibody 3C1 (c3C1) (antibody, V domains shown)
VH: EVQLQESGPSLVKPSQTLSLTCSVTGDSITNGYWNWIRKFPGNKLEYMGYISYSGSTYYSPSLKSRISITRDTSKNQHYLQLNSVTSEDTATYYCASDYHGSKYYFDYWGQGTTLTVSS
VL: DIVMTQSHKFMSTSVGHRVSITCKASQDVGNDVAWYQQKPGQSPKLLIYWASTRHTGVPDRFTGSGSGTDFTLTISNVQSEDLADYFCQQYNRYPYTFGGGTKLEIK
notes: also called chimeric MAb c3C1
- Kd: < 1 pM
